PMC5241209, “Identification and functional analysis of c.422_423InsT, a novel mutation of the HNF1A gene in a patient with diabetes”

Target: HNF1A (rHNF1A) (UniProt P20823 1-631)
Assay: EMSA; two complexes, complex 1 more abundant; abolished by 300x unlabeled probe; 12 mM Hepes pH 7.9, 60 mM KCl, 10% glycerol, 1 mM EDTA, 1 mM MgCl2, 1 mM DTT plus DNA mix (1 mM spermidine, 1 mM MgCl2), 1 ug poly(dG/dC)·poly(dG-dC), 4 C; probe 1.29 nM (0.52 nM in mutant titration); 6% PAGE, 0.5x TBE
Conditions: protein: ivt; chain copies: 2; label: 32P 5' end (T4 PNK)

Sequence of HNF1A (rHNF1A) (P20823 whole entry): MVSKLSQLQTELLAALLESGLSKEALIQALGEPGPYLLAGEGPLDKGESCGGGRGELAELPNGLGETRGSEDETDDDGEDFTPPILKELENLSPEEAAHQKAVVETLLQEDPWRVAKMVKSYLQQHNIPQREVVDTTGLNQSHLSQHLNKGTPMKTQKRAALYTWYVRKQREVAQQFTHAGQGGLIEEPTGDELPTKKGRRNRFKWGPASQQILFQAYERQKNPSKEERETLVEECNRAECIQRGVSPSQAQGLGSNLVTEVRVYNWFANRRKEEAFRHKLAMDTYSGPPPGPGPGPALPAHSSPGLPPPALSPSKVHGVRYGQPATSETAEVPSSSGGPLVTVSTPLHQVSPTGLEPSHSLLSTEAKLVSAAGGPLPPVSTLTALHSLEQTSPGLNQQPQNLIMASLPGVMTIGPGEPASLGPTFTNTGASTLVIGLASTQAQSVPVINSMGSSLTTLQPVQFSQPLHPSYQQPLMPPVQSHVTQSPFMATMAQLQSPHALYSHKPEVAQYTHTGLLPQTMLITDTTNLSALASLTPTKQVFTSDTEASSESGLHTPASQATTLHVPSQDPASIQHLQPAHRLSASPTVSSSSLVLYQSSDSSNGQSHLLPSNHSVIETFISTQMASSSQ

B1: GLUT2 promoter HNF1A site (dsDNA)
DNA 1: CTCAGTAAAGATTAACCAT
DNA 2: ATGGTTAATCTTTACTGAG
- binding result: binds
